# Data as given in US20230242621A1 (VIR BIOTECHNOLOGY, published 2023).
# T1: HBsAg (hepatitis B surface antigen; genotype or subtype not stated in the example) (hepatitis B virus)
# T1 chain: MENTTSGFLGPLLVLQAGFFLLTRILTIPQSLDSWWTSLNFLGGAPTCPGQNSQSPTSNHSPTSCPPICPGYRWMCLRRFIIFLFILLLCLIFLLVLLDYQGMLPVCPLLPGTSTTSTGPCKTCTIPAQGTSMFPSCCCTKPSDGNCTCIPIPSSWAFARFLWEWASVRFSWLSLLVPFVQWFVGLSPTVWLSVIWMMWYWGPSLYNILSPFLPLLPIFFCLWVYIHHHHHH
# Target: T1, HBsAg (hepatitis B surface antigen; …)
# Experiment: ELISA on HBsAg; IgG1 with wild-type Fc
binder,measurement,value
"HBC34-v36 (IgG1 with wild-type Fc, allotype G1m17, 1) (antibody, V domains shown, also called L-CDR2 GL) VH: ELQLVESGGGWVQPGGSQRLSCAASGRIFRSFYMSWVRQAPGKGLEWVATINQDGSEKLYVDSVKGRFTISRDNAKNSLFLQMNNLRVEDTAVYYCAAWSGNSGGMDVWGQGTTVSVSS VL: SYELTQPPSVSVSPGQTVSIPCSGDKLGNKNVAWFQHKPGQSPVLVIYQDSKRPSGIPERFSGSNSGNTATLTISGTQAMDEAAYFCQTFDSTTVVFGGGTRLTVLG",EC50,0.7 ng/mL
